Experimental findings from article PMC3731059 are described below.

Common to all, as to assay: FXa generation assay
Experiment [1] concerns the target FVIIIa Ala1866Cys/Ser2119Cys (thrombin-activated B domainless factor VIII variant) (UniProt P00451).
The target of experiment [2] is FVIIIa Arg2116Ala (thrombin-activated B domainless factor VIII variant) (UniProt P00451).
Experiment [3] concerns the target FVIIIa Arg2116Val (thrombin-activated B domainless factor VIII variant) (UniProt P00451).
In experiment [4] the target is FVIIIa Gly1750Cys/Arg2116Cys (thrombin-activated B domainless factor VIII variant) (UniProt P00451).
For experiment [5], the target named is FVIIIa Ser2029Cys/Pro2292Cys (thrombin-activated B domainless factor VIII variant) (UniProt P00451).
The target in experiment [6] is WT FVIIIa (thrombin-activated B domainless factor VIII) (UniProt P00451).

For factor IXaβ (enzyme), the Kd (in general, the equilibrium constant for the complex coming apart) in experiment [1] worked out at 400 pM; in experiment [2], 450 pM; in experiment [3] it was 400 pM; in experiment [4] it was 440 pM; in experiment [5] it was 330 pM; in experiment [6], 430 pM.
